{"source": "patent US9913914B2", "about": "“Cell transport” (priority 2013, dated 2018)", "type_in_all_cases": "cell-based, Dictyostelium discoideum", "key": {"PTEN [1]": {"tested_on": "PTEN", "experiment": "Inositol phospholipid levels in starving Dictyostelium cells (solvent extraction, thin layer chromatography)", "conditions": "10 micromolar, 1 hour", "protocol": "FIG. 9. The levels of the 4 inositol phospholipids (PI, PIP, PIP2 and PIP3) in wild-type Dictyostelium cells undergoing starvation were measured by solvent extraction of cell cultures and analysis using thin layer chromatography. The effect of Cupid B-PTEN peptide treatment (10 micromolar, 1 hour) was calculated as a percentage change in the basal (untreated) levels.\nThe PTEN protein has a phospholipase enzymatic activity that functions to remove phosphate groups from inositol-based lipids and as such is involved with maintaining the balance between varieties of inositol phospholipids present at the cell surface. In wild-type cells undergoing starvation the inositol phospholipids with 3 and 4 phosphate groups (PIP2 and PIP3) are kept low, largely due to the action of PTEN.\nWe determined the effect of Cupid B-PTEN peptide on the inositol phospholipid levels in Dictyostelium cultures. Cupid B-PTEN peptide treated cells (10 micromolar, 1 hour) alters the basal levels of inositol phospholipids in Dictyostelium cells."}, "PTEN [2]": {"tested_on": "PTEN", "experiment": "Protein phosphorylation response to cyclic AMP in starving Dictyostelium cultures (antibody detection on SDS gels)", "conditions": "pretreated 1 hour, 10 micromolar", "excerpt": "FIG. 10. In starving Dictyostelium cultures, several proteins undergo rapid phosphorylation/dephosphorylation events in response to an applied dose of cyclic AMP. The strength of this response is limited by PTEN enzyme activity. This response is visualised with antibody detection of these phosphoproteins on SDS gels prepared from extracted cultures at the time points indicated after the cAMP dose.\nIn starving Dictyostelium cultures, several proteins undergo rapid phosphorylation/dephosphorylation events in response to an applied dose of cyclic AMP. The strength of this initial phosphorylation response is limited by PTEN enzyme activity and is associated with changes in PIP2 and PIP3 inositol phospholipid levels."}, "[3]": {"tested_on": "Dictyostelium cells (PTEN-null phenotype)", "experiment": "Streaming/aggregation of starved wild-type Dictyostelium cultures compared with PTEN-null mutant", "conditions": "10 micromolar dose", "protocol": "FIG. 8. Cupid can transport large molecule cargo into the cell. Starved Dictyostelium cultures were plated into petri dishes in starvation buffer and visualised after 10 hours. In untreated wild-type (WT) cultures (A), cells stream together into aggregation centres, co-ordinated by cell to cell signaling.\nIn Dictyostelium, a genetic mutant in which the PTEN gene is absent causes marked changes in phenotype."}}, "data": [{"molecule": "Cupid B-PTEN peptide: SEQ ID NO: 12; His-tagged Cupid B fused to 167 amino acid C2 region (186-352) of human PTEN (protein, listed as Homo sapiens, His tag, His-tagged Cupid B fused to 167 amino acid C2 region (186-352) of human PTEN) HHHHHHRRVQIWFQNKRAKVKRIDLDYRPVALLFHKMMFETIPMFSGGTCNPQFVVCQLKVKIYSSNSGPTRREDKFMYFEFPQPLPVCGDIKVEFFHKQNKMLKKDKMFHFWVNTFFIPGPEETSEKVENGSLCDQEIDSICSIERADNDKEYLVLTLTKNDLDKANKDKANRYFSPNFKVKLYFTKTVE", "values": [{"measurement": "level of PIP2 relative to untreated basal levels", "setting": "PTEN [1]", "value": "+75%"}, {"measurement": "level of PIP3 relative to untreated basal levels", "setting": "PTEN [1]", "value": "+150%"}, {"measurement": "initial phosphorylation response to cyclic AMP versus untreated cultures", "setting": "PTEN [2]", "value": "much stronger initial phosphorylation response"}, {"measurement": "aggregation behaviour of wild-type cells during starvation", "setting": "[3]", "value": "exhibit the same distinctive behaviour as the PTEN-Null strain"}]}]}
